Measurements: patent publication US10562935B2, “Stapled peptides and uses thereof” (London Health Sciences Centre Research Inc., priority 2015, dated 2020)
Bridges are numbered along the chain shown (N, C = ends).

B1: 7 kDa RHAMM: mini protein of 62 amino acids derived from the C-terminus of full-length RHAMM, contains both HABDs; reference for α-helical character (protein, listed as Mus musculus)
chain: RDSYAQLLGHQNLKQKIKHVVKLKDENSQLKSEVSKLRSQLVKRKQNELRLQGELDKALGIR

What was measured:
[1] = Circular dichroism (CD) spectroscopy of linear and stapled peptides in water or 40% TFE/water (Example 3); format: physicochemical; settings: for [0]208 mean residue ellipticity: λ = 208 nm; for [0]222 mean residue ellipticity: λ = 222 nm
Method: CD spectra were obtained on a Jasco J-810 spectropolarimeter and recorded in the range of 180-260 nm. Peptide solutions were prepared with a 0.1M phosphate buffer solution to a concentration of 0.5 mM. The measurements were performed in quartz cuvettes with a path length of 1 mm and a scanning speed of 10-50 nm/min. Five individual data points were averaged by the instrument in order to obtain the reported CD spectrum. The measurements were carried out at 20° C. A blank solution of 0.1M phosphate buffer solution was run before every measurement in order to baseline correct for any UV-interference observed from the buffer.
CD data for the 14- and 15-mer peptides containing HABD2 (VSKLRSQLVKRKQN, SEQ ID NO: 2) and HABD1 (NLKQKIKHVVKLKDE, SEQ ID NO: 4) and cyclized derivatives thereof in water or 40% TFE/water are provided below in Tables 8 (water) and 9 (40% TFE/water). Tables 8 and 9 provide the mean residue ellipicity ([θ] deg cm^2 dmol^−1) at λ=222 and 208 nm for each peptide and ratios of ellipticities at 222/208. Each of the peptides was acetylated at its amino terminus and amidated at its carboxy terminus.
CD data for linear peptides having the sequences […] (SEQ ID NO: 5) and […] (SEQ ID NO: 6) and cyclized derivatives thereof in water or 40% TFE/water are provided below in Tables 12 (water) and 13 (40% TFE/water). Tables 12 and 13 provide the mean residue ellipicity ([0] deg cm^2 dmol^−1) at λ=222 and 208 nm for each peptide and ratios of ellipticities at 222/208. Each of the peptides was acetylated at its amino terminus and amidated at its carboxy terminus.
Circular Dichroism (CD) spectroscopy is a tool that is used to study the secondary structure characteristics of a compound. Peptides and proteins can fold into organized structures, such as alpha helices and beta sheets, which are the result of complex hydrogen bonding and other interactions between amino acid side chains, as well as adopt a random coil formation, which lacks much of the organization of the other two structures. The CD spectrum of an alpha helix is characterized by two local minima at 208 nm and 222 nm. The ratio of the values of the molar ellipticities at these wavelengths ([θ]222/[θ]208) is a strong indication of the relative helicity of a compound; a compound is more helical when the ratio of these two values approaches 1.0. Synthetic constraints introduced to the peptide backbone can force a peptide chain to increase its helical character. These constraints can be introduced by staples, of varying types, which allow cyclization of the peptide backbone to take place.

[2] = Direct HA-binding ELISA of biotinylated peptides on HA coated plates (Example 4); set-up: key to HA binding: absorbance (color) read at 450 nm; settings: for HA binding: as repeated in tables 16, 18, 20; for HA direct binding (OD): optical density, summary tables 15, 17, 19
Method: Each of these peptides was biotinylated at its amino-terminus, and an AEEA spacer was included to separate the peptide sequence from the biotin molecule.
HA coated plates were purchased (ECHELON). Peptides were dissolved in 2 mM PBS to constant molarity, aliquoted and stored at −20° C. until used in assays. 7 kDa biotin-labeled RHAMM (SEQ ID NO: 1) was synthesized and used as a positive control in these assays. Biotin labeled peptides were added to the HA coated wells (n=3 replicates/peptide) at either 0.8 or 0.08 μM and then incubated with shaking overnight at 4° C. Wells were washed free of excess unbound peptides using 200 μl PBS (4 times). 100 μl of Streptavidin-HRP was then added to each well and the plate was incubated at room temperature for 1 hr. The plate was then washed with 200 μl PBS/well 4 times and TMB Liquid Substrate System for ELISA (Sigma) was added to each well, incubated for 5-10 min at room temperature and color read at 450 nm Plate Reader (BioTek, SYNERGY H4, Hybrid Reader).
Direct HA-binding results for the biotinylated equivalents of compounds 132 and 150-161 are show in FIG. 39, and results for compounds 265-268 and 275-278 are shown in FIG. 40.

[3] = Circular dichroism (CD) spectroscopy of HABD2 peptides in Milli-Q water (Example 1); format: physicochemical; settings: for [θ]222/[θ]208 ratio of ellipticities / fH fraction helicity / Molar ellipticity [θ]192 / Molar ellipticity [θ]208 / Molar ellipticity [θ]222: 0.5 mM in Milli-Q water; for fH fraction helicity: equations 1-3; for α-helical character by CD (in words): Milli-Q water; for Molar ellipticity [θ]192: λ = 192 nm; for Molar ellipticity [θ]208: λ = 208 nm; for Molar ellipticity [θ]222: λ = 222 nm
Source text: In addition, a large mean residue ellipticity indicates greater α-helical character. […] This was predicted to be the case, as there is a lack of contributing residues that might form a hydrophobic core, thereby helping to stabilize the secondary structure of the linear peptide. For this reason, bridges were introduced into the peptides. […] The differences in α-helicity induced by the bridges placed at different points within each peptide may be due to the differences in their primary sequences. Specifically, two amino acids (at the i and i+4 position) have to be replaced in order to form the lactam bridge. In compound 133, leucine was replaced at both the i and i+4 position; while in compound 136, glutamine was replaced at the i position and aspartic acid was replaced at i+4. Leucine and glutamine are proposed to be helix-stabilizing residues.
A larger portion of the RHAMM protein was used as the reference for α-helical character of the truncated peptides. 7 kDa RHAMM (SEQ ID NO: 1) is a mini protein that is composed of 62 amino acids, which was derived from the C-terminus of the full-length RHAMM sequence. It contains both HABDs, and is predicted to have almost complete α-helix shape, similar to that of native full-length RHAMM.
A peptide's α-helicity can be quantified using equations 1-3: fH=[([θ]obs222−[θ]c)/([θ]max222−[θ]c)] (Equation 1) [θ]c=2220+53T (Equation 2) [θ]max222=(−44000+250T)(1−k/N) (Equation 3) where fH is the ratio of the average number of helical hydrogen bonds divided by the total number of hydrogen bonds that can be found in a peptide, T is the temperature in degrees Celsius, N is the number of residues in the peptide and k is a constant of ellipticity when 100% of the structure is α-helical (3 for carboxyamidated peptides).
Milli-Q water was chosen as the solvent in which all peptides would be dissolved for CD spectroscopy, as it is a UV invisible solvent, which is a requirement of the analytical technique, and it represents RHAMM's natural environment in the body. Luo and Baldwin [18] stated that when peptides are taken out of their native protein sequence, they usually show little to no helical formation in water alone. For this reason, TFE/H2O solutions are commonly used in studies to observe the α-helix characteristics, and may improve the helical nature of the peptides observed here. However, a helix-stabilizing solvent, such as TFE, would not be as contextually relevant, as there are no solvent stabilizing effects in the body. Thus use of TFE would tend to produce skewed results and not be representative of the peptide's natural behavior.

[4] = [θ]222/[θ]208 ratio in water, summary tables 15, 17, 19
[5] = as repeated in tables 16, 18, 20

HA binding [2] | HA direct binding (OD) [2] [OD] | Molecule | [θ]222/[θ]208 ratio of ellipticities [1, 4] | [θ]222/[θ]208 ratio of ellipticities [1, 5] | [0]222/[0]208 ratio of ellipticities ([1]; in 40% TFE/water) | [0]222/[0]208 ratio of ellipticities ([1]; in water) | [0]208 mean residue ellipticity ([1]; in 40% TFE/water) [deg cm^2 dmol^−1] | [0]208 mean residue ellipticity ([1]; in water) | [0]222 mean residue ellipticity ([1]; in 40% TFE/water) [deg cm^2 dmol^−1] | [0]222 mean residue ellipticity ([1]; in water) [deg cm^2 dmol^−1] | [θ]222/[θ]208 ratio of ellipticities [3] | fH fraction helicity [3] | α-helical character by CD (in words) [3] | Molar ellipticity [θ]192 [3] | Molar ellipticity [θ]208 [3] | Molar ellipticity [θ]222 [3]
0.045 | 0.045 | Ac-(cyclo-5,9)-VSKL[KSQLE]KRKQN-NH2 (Ac-VSKLKSQLEKRKQN-NH2; lactam 5-9; SMILES CC(=O)N[C@H](C(=O)N[C@@H](CO)C(=O)N[C@@H](CCCCN)C(=O)N[C@@H](CC(C)C)C(=O)N[C@H]1CCCCNC(=O)CC[C@@H](C(=O)N[C@@H](CCCCN)C(=O)N[C@@H](CCCNC(=N)N)C(=O)N[C@@H](CCCCN)C(=O)N[C@@H](CCC(N)=O)C(=O)N[C@@H](CC(N)=O)C(N)=O)NC(=O)[C@H](CC(C)C)NC(=O)[C@H](CCC(N)=O)NC(=O)[C@H](CO)NC1=O)C(C)C) [Compound 154] | 0.20 | 0.20 | 0.75 | 0.20 | -1.18E+04 | -4,95E+03 deg cm^2 dmol^−1 | -8.78E+03 | -9.74E+02 | – | – | – | – | – | –
0.05 | 0.05 | Ac-(cyclo-6,10)-VSKLR[KQLVE]RKQN-NH2 (Ac-VSKLRKQLVERKQN-NH2; lactam 6-10; SMILES CC(=O)N[C@H](C(=O)N[C@@H](CO)C(=O)N[C@@H](CCCCN)C(=O)N[C@@H](CC(C)C)C(=O)N[C@@H](CCCNC(=N)N)C(=O)N[C@H]1CCCCNC(=O)CC[C@@H](C(=O)N[C@@H](CCCNC(=N)N)C(=O)N[C@@H](CCCCN)C(=O)N[C@@H](CCC(N)=O)C(=O)N[C@@H](CC(N)=O)C(N)=O)NC(=O)[C@H](C(C)C)NC(=O)[C@H](CC(C)C)NC(=O)[C@H](CCC(N)=O)NC1=O)C(C)C) [Compound 155] | 0.37 | 0.37 | 0.75 | 0.37 | -1.71E+04 | -5.30E+03 deg cm^2 dmol^−1 | -1.28E+04 | – | – | – | – | – | – | –
– | – | H-(cyclo-5,9)-VSKL[ESQLK]KRKQN-NH2 (H-VSKLESQLKKRKQN-NH2; lactam 5-9; SMILES CC(C)C[C@@H]1NC(=O)[C@H](CCC(N)=O)NC(=O)[C@H](CO)NC(=O)[C@@H](NC(=O)[C@H](CC(C)C)NC(=O)[C@H](CCCCN)NC(=O)[C@H](CO)NC(=O)[C@@H](N)C(C)C)CCC(=O)NCCCC[C@@H](C(=O)N[C@@H](CCCCN)C(=O)N[C@@H](CCCNC(=N)N)C(=O)N[C@@H](CCCCN)C(=O)N[C@@H](CCC(N)=O)C(=O)N[C@@H](CC(N)=O)C(N)=O)NC1=O) [Compound 134] | – | – | – | – | – | – | – | – | 0.57 | 0.22 | increase in α-helix structure | 1002.14 deg cm^2 dmol^−1 residue^−1 | −7685.97 deg cm^2 dmol^−1 residue^−1 | −4403.89 deg cm^2 dmol^−1 residue^−1
– | – | H-(cyclo-7,11)-VSKLRS[ELVKK]KQN-NH2 (H-VSKLRSELVKKKQN-NH2; lactam 7-11; SMILES CC(C)C[C@H](NC(=O)[C@H](CCCCN)NC(=O)[C@H](CO)NC(=O)[C@@H](N)C(C)C)C(=O)N[C@@H](CCCNC(=N)N)C(=O)N[C@@H](CO)C(=O)N[C@H]1CCC(=O)NCCCC[C@@H](C(=O)N[C@@H](CCCCN)C(=O)N[C@@H](CCC(N)=O)C(=O)N[C@@H](CC(N)=O)C(N)=O)NC(=O)[C@H](CCCCN)NC(=O)[C@H](C(C)C)NC(=O)[C@H](CC(C)C)NC1=O) [Compound 136] | – | – | – | – | – | – | – | – | 0.30 | 0.14 | did not seem to stabilize | 1437.80 deg cm^2 dmol^−1 residue^−1 | −5084.93 deg cm^2 dmol^−1 residue^−1 | −1568.07 deg cm^2 dmol^−1 residue^−1
– | – | B1 | – | – | – | – | – | – | – | – | 0.46 | 0.18 | – | 1839.66 deg cm^2 dmol^−1 residue^−1 | −7553.76 deg cm^2 dmol^−1 residue^−1 | −4046.60 deg cm^2 dmol^−1 residue^−1
